One test deals with T1, 4H3907-bA.
T1 chain: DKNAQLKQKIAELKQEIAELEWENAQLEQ
The experiment in a line: two-hybrid library CCNG1.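 Further: natural log of median RNA to DNA barcode read ratio; higher means stronger binding.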

The target of a further test is T2, 4H363-bA.
T2 chain: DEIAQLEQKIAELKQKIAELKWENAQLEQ
The experiment in a line: two-hybrid library CCNG1.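 Further: natural log of median RNA to DNA barcode read ratio; higher means stronger binding.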

A further test has as its target T3, 4H2568-bA.
T3 chain: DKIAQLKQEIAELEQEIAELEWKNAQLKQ
The experiment in a line: two-hybrid library CCNG1.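 Further: natural log of median RNA to DNA barcode read ratio; higher means stronger binding.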

The target of another test is T4, 4H2619-bA.
T4 chain: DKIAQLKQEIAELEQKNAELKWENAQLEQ
As to the kind of experiment: two-hybrid library CCNG1.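 Further: natural log of median RNA to DNA barcode read ratio; higher means stronger binding.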

For a further test, the target named is T5, 4H2745-bA.
T5 chain: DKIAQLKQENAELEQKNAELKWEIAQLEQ
The experiment in a line: two-hybrid library CCNG1.

The next test has as its target T6, 4H1072-bA.
T6 chain: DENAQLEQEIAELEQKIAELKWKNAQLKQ
The experiment in a line: two-hybrid library CCNG1.

A further test addresses T7, 4H470-bA.
T7 chain: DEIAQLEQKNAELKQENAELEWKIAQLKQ
As to the kind of experiment: two-hybrid library CCNG1.

For another test, the target named is T8, 4H1046-bA.
T8 chain: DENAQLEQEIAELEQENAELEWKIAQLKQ
As to the kind of experiment: two-hybrid library CCNG1. The following applies: mean of both orientations.

The next test addresses T9, 4H3961-bA.
T9 chain: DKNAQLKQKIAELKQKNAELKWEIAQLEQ
As to the kind of experiment: two-hybrid library CCNG1. Particulars: mean of both orientations.

The target in a further test is T10, 4H344-bA.
T10 chain: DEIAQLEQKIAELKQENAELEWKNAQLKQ
As to the kind of experiment: two-hybrid library CCNG1.

For a further test, the target named is T11, 4H1000-AA.
T11 chain: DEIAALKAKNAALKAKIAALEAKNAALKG
The experiment in a line: two-hybrid library CCmax.

In a further test the target is T12, 4H3939-AA.
T12 chain: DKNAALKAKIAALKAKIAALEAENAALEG
As to the kind of experiment: two-hybrid library CCmax. Particulars: mean of both orientations.

The target in a further test is T13, 4H3666-AA.
T13 chain: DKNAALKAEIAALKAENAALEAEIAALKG
As to the kind of experiment: two-hybrid library CCmax. The following applies: mean of both orientations.

Another test deals with T14, 4H2991-AA.
T14 chain: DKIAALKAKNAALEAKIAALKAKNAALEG
As to the kind of experiment: two-hybrid library CCmax. Particulars: mean of both orientations.

The next test has as its target T15, 4H3102-AA.
T15 chain: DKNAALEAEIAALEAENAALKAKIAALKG
As to the kind of experiment: two-hybrid library CCmax. The following applies: mean of both orientations.

The target of another test is T16, 4H1109-AA.
T16 chain: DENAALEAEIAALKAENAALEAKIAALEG
The experiment in a line: two-hybrid library CCmax. The following applies: mean of both orientations.

The target in a further test is T17, 4H3417-AA.
T17 chain: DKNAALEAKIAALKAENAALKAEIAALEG
As to the kind of experiment: two-hybrid library CCmax. The following applies: mean of both orientations.

The target in another test is T18, 4H189-AA.
T18 chain: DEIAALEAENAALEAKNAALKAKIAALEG
The experiment in a line: two-hybrid library CCmax. Particulars: mean of both orientations.

The target of a further test is T19, 4H3709-AA.
T19 chain: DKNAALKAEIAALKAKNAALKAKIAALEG
As to the kind of experiment: two-hybrid library CCmax. Particulars: mean of both orientations.

Another test has as its target T20, 4H1035-AA.
T20 chain: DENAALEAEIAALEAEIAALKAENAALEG
As to the kind of experiment: two-hybrid library CCmax. Particulars: mean of both orientations.

Another test concerns the target T21, 4H1146-AA.
T21 chain: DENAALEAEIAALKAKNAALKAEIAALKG
The experiment in a line: two-hybrid library CCmax. The following applies: mean of both orientations.

For a further test, the target named is T22, 4H3591-AA.
T22 chain: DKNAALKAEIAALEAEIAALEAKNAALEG
As to the kind of experiment: two-hybrid library CCmax. The following applies: mean of both orientations.

A further test concerns the target T23, 4H2283-AA.
T23 chain: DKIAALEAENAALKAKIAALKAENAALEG
The experiment in a line: two-hybrid library CCmax. The following applies: mean of both orientations.

Another test concerns the target T24, 4H971-AA.
T24 chain: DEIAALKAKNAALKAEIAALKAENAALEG
The experiment in a line: two-hybrid library CCmax. Particulars: mean of both orientations.

The next test has as its target T25, 4H1809-AA.
T25 chain: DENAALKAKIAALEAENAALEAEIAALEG
As to the kind of experiment: two-hybrid library CCmax. Particulars: mean of both orientations.

A further test has as its target T26, 4H428-AA.
T26 chain: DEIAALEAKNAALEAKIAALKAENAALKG
The experiment in a line: two-hybrid library CCmax. The following applies: mean of both orientations.

The next test has as its target T27, 4H1064-AA.
T27 chain: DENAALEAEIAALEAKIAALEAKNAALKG
The experiment in a line: two-hybrid library CCmax. Particulars: mean of both orientations.

In the next test the target is T28, 4H2248-AA.
T28 chain: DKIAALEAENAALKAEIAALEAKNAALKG
As to the kind of experiment: two-hybrid library CCmax.

The next test concerns the target T29, 4H656-AA.
T29 chain: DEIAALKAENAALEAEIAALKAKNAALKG
As to the kind of experiment: two-hybrid library CCmax.

A further test has as its target T30, 4H3066-AA.
T30 chain: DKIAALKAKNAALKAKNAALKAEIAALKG
The experiment in a line: two-hybrid library CCmax. Particulars: mean of both orientations.

For another test, the target named is T31, 4H391-AA.
T31 chain: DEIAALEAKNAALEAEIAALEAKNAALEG
As to the kind of experiment: two-hybrid library CCmax. The following applies: mean of both orientations.

Another test deals with T32, 4H2713-AA.
T32 chain: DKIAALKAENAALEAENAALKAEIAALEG
The experiment in a line: two-hybrid library CCmax. Particulars: mean of both orientations.

For a further test, the target named is T33, 4H2948-AA.
T33 chain: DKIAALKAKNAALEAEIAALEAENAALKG
The experiment in a line: two-hybrid library CCmax. The following applies: mean of both orientations.

For a further test, the target named is T34, 4H3920-AA.
T34 chain: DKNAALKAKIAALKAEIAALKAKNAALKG
The experiment in a line: two-hybrid library CCmax. Particulars: mean of both orientations.

For another test, the target named is T35, 4H1348-AA.
T35 chain: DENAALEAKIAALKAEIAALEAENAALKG
The experiment in a line: two-hybrid library CCmax. The following applies: mean of both orientations.

The target in the next test is T36, 4H2580-AA.
T36 chain: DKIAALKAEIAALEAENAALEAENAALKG
The experiment in a line: two-hybrid library CCmax.

The target of another test is T37, 4H497-AA.
T37 chain: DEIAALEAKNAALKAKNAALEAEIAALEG
As to the kind of experiment: two-hybrid library CCmax. The following applies: mean of both orientations.

Another test addresses T38, 4H675-AA.
T38 chain: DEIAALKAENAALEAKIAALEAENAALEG
The experiment in a line: two-hybrid library CCmax. Particulars: mean of both orientations.

For another test, the target named is T39, 4H2742-AA.
T39 chain: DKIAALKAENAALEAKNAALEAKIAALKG
The experiment in a line: two-hybrid library CCmax. Particulars: mean of both orientations.

The target of another test is T40, 4H478-AA.
T40 chain: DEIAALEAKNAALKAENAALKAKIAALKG
As to the kind of experiment: two-hybrid library CCmax. Particulars: mean of both orientations.

A further test concerns the target T41, 4H3446-AA.
T41 chain: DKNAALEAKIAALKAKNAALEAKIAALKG
As to the kind of experiment: two-hybrid library CCmax. The following applies: mean of both orientations.

A further test has as its target T42, 4H3029-AA.
T42 chain: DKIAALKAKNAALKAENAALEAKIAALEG
As to the kind of experiment: two-hybrid library CCmax. The following applies: mean of both orientations.

In a further test the target is T43, 4H3628-AA.
T43 chain: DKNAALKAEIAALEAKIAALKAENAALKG
As to the kind of experiment: two-hybrid library CCmax. The following applies: mean of both orientations.

A further test addresses T44, 4H3121-AA.
T44 chain: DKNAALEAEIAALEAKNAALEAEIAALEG
The experiment in a line: two-hybrid library CCmax. Particulars: mean of both orientations.

Another test has as its target T45, 4H1391-AA.
T45 chain: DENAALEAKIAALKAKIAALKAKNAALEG
As to the kind of experiment: two-hybrid library CCmax. The following applies: mean of both orientations.

Another test has as its target T46, 4H1854-AA.
T46 chain: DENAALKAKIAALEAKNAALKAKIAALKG
The experiment in a line: two-hybrid library CCmax. The following applies: mean of both orientations.

The target in another test is T47, 4H146-AA.
T47 chain: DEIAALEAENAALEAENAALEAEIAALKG
As to the kind of experiment: two-hybrid library CCmax. Particulars: mean of both orientations.

B1: 4H1046-bA (peptide)
chain: DENAQLEQEIAELEQENAELEWKIAQLKQ
As for B1, the interaction score is -0.392 in the test with 4H3907-bA; 0.269 in the test with 4H363-bA; -1.17 with 4H2568-bA; -0.535 with 4H2619-bA; 0.103 in the test with 4H2745-bA; -0.435 in the test with 4H1072-bA. The interaction score was 0.412 in the test with 4H470-bA, -0.316 in the test with 4H1046-bA, 1.98 in the test with 4H3961-bA and -0.743 with 4H344-bA.

B2: 4H1000-AA (peptide)
chain: DEIAALKAKNAALKAKIAALEAKNAALKG
Turning to B2, the interaction score in the test with 4H1000-AA is -0.42; with 4H3939-AA, -1.65; in the test with 4H3666-AA it was 0.777; with 4H2991-AA, -1.19; in the test with 4H3102-AA, -0.226; with 4H1109-AA it was 1.3. For the same molecule, the interaction score was -0.644 with 4H3417-AA; -0.933 in the test with 4H189-AA; -1.07 in the test with 4H3709-AA; -1.26 with 4H1035-AA; -1.52 with 4H1146-AA; -0.703 in the test with 4H3591-AA. The interaction score with 4H2283-AA was 0.468; with 4H971-AA, -0.95; with 4H1809-AA, 0.471; with 4H428-AA, -0.137; in the test with 4H1064-AA, -0.567; with 4H2248-AA it was -1.32. For the same molecule, the interaction score with 4H656-AA is 0.604; in the test with 4H3066-AA it was -1.96; with 4H391-AA, 0.223; in the test with 4H2713-AA it was -1.49; with 4H2948-AA, 0.224; in the test with 4H3920-AA, -1.89. Further, the interaction score with 4H1348-AA was -1.24; with 4H2580-AA it was -1.04; with 4H497-AA, -1.74; in the test with 4H675-AA, 2.34; with 4H2742-AA it was -1.09; with 4H478-AA, -2.48. The interaction score is -1.24 with 4H3446-AA; -0.99 in the test with 4H3029-AA; -1.21 with 4H3628-AA; -0.524 with 4H3121-AA; -1.56 with 4H1391-AA; -1.79 in the test with 4H1854-AA. In addition, the interaction score with 4H146-AA was -0.33.
